Among the data in publication doi:10.1101/2025.02.20.639385 are stoichiometry N values, retold here.

The experiment has as its target MBP-RAB23T22N (Chlamydomonas reinhardtii). In words: SEC. A general note: Size exclusion chromatography separates by hydrodynamic size, large species first.

By stoichiometry N is commonly meant the number of molecules, sites or subunits per partner or assembly. Take “RAB18S22N (bacterially expressed, 6×His-tag removed) (natural protein)”: the stoichiometry N came to 1.
